For this experiment, the target named is (his)6CfaB, mature CfaB (residues 24–170) with N-terminal hexahistidine tag (enterotoxigenic E. coli (ETEC)) (UniProt E3PPC4). The experiment is described as follows: pull-down.
Sequence of UniProt E3PPC4 (E3PPC4 24-170): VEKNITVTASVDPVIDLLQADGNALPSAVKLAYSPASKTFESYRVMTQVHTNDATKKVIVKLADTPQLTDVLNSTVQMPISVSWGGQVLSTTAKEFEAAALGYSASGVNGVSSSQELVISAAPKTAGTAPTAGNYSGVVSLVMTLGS

Regarding CfaA (20–238) K9A (natural protein), the CfaA/CfaB ratio is 0.64.
Take “CfaA (20–238), wild type, untagged (pETDuet-1-cfaA) (natural protein)”: the CfaA/CfaB ratio was found to be 0.66.

These data come from article PMC4133393.
